Assay results from the nanobody polyreactivity screen of Harvey et al. (2022).

Experiment: yeast display, Sf9 membrane polyspecificity reagent, FACS + sequencing; frameworks hold sequencing errors
Summary of the method: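 A synthetic nanobody library was expressed on Saccharomyces cerevisiae BJ5465 by galactose induction for 36–48 hours. The library was stained for 1 hour at 4 °C with 10% biotinylated, detergent-solubilized Sf9 membrane reagent and enriched with streptavidin microbeads before FACS. Low and high (top ~1%) gates were set on anti-HA fluorescence for expression and streptavidin fluorescence for reagent binding, and each polyreactivity label reflects the gate of origin.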

Sequence | polyreactivity (PSR sort gate)
QVQLVESGGGLVQAGGSLRLSCAASGRTFNQYAMGWYRQAPGKERELVAAISRRTGRTYYADSVKGRFTISRDNAKNTVYLQMNSLKQEDTAVYYCAAGFTYLNYTPWYRFNYWGQGTQVTVSS | high polyreactivity
QVQLVESGGGLVQAGGSLRLSCAASGRTFNRNAMGWYRPAPGKERELVAAISRGGGGTFYADSVKGRFTISRDNAKNTVYLQMNSLKPEDTAVYYCAVWQDHYDWGQGTQVTVSS | low polyreactivity
QVQLVESGGGLVQAGGSLRLSCAASGRTFNRNAMGWYRQAPGKERELVASITSRGGSTYYADSVKGRFTISRDNAKNTVYLQMNSLKPEDTAVYYCNATPKFFGRYWGYDYWGQGTQVTVSS | high polyreactivity
QVQLVESGGGLVQAGGSLRLSCAASGRTFNRYAMGWYRQAPGKERELVAAISWRGDSTYYADSVKGRFTISRDNAKNTVYLQMNSLKPEDTAVYYCAARGNFWGQGTQVTVSS | high polyreactivity
QVQLVESGGGLVQAGGSLRLSCAASGRTFNRYAMGWYRQAPGKERELVAAISWSGGRTYYADSVKGRFTISRDNAKNTVYLQMNSMIPEATAVYYCAKEAYFRYDYCGQGTQVTVSS | low polyreactivity
QVQLVESGGGLVQAGGSLRLSCAASGRTFNSNAMGCYRQAPGKERELVARISRGASTYYADSVKGRFTISRDNAKNTVYLQMNSLKPEDTAVYYCAKRRRSAAPKYDYWGQGTQVTVSS | high polyreactivity
QVQLVESGGGLVQAGGSLRLSCAASGRTFNSYAMGWYRQAPGKEREFVASITFSTGRTYYADSVKGRFTISRDNAKNTVYLQMNSLKPEDTAVYYCNVRFVTGYRYRYGDDYWGQGTQVTVSS | low polyreactivity
QVQLVESGGGLVQAGGSLRLSCAASGRTFNSYPMGWYRQAPGTERELVAAINYRGTSTYYSDSVKGRFTISRDNAMNTVYLQMNSLKPEDTAVYYCNARQTRSSRINYPEGIYNYWGQGTQVNVSS | high polyreactivity
QVQLVESGGGLVQAGGSLRLSCAASGRTFNTYAMGWYRQAPGKERELVAAISSGGRTYYADSVKGRFTISRDNAKNTVYLQMNSLKPEDTAVYYCAAKPFQYRTVYEYWGQGTQVTVSS | high polyreactivity
QVQLVESGGGLVQAGGSLRLSCAASGRTFNVNAMGWYRQAPGKERELVAAISSSGTTNYADSVKGRFTISRDNAKNTVYLQMNSLKPEDTAVYYCNKRWRDKYPQYDYWGQGTQVTVSS | low polyreactivity
QVQLVESGGGLVQAGGSLRLSCAASGRTFNWYAMGWYRQAPGKERELVAAISYSGGGTYYADSVKGRFTISRDNAKNTVYLQMNSLKPEDTAVYYCAAETYYAPYVYWGQGTQVTVSS | high polyreactivity
QVQLVESGGGLVQAGGSLRLSCAASGRTFNWYAMGWYRQAPGKERELVAAISYSGGGTYYADSVKGRFTISRDTAKNTVYLQMNSLKPEDTAVYYCAAETYYAPYDYWGQGTQVTVSS | high polyreactivity
QVQLVESGGGLVQAGGSLRLSCAASGRTFNWYAMGWYRQAPGKESELVAAISSRGGSTYADSVKGRFTISRDNAKNTVYLQMNSLTPEDTAVYYCNADLLPADAPLWVTGGDYWGQGTQVTVSW | low polyreactivity
QVQLVESGGGLVQAGGSLRLSCAASGRTFNYYAMGWYRQAPGKEREFVAANSWSVGSTYYADSVKGRFTISRDNAKNTVYLQMNSLKPEDTAVYYCATEVPVGVQRHIFNYYYWGQGTPVTVSS | low polyreactivity
QVQLVESGGGLVQAGGSLRLSCAASGRTFNYYAMGWYRQAPGKERELVAAISSSGGRTYYADSVKGRFTISRDNAKNTVYLQMNSLKPEDTAVYYCAADSFYYRPEYDYWGQGTQVTVSS | low polyreactivity
QVQLVESGGGLVQAGGSLRLSCAASGRTFNYYAMGWYRQAPGKERELVATITFSGDGSTYYAHSVKGRFTISRDNAKNTVYLHMNSLKPEDTAVYYCTADIEKSYNYWGQGTQVTVSS | low polyreactivity

Sequence | polyreactivity (PSR sort gate)
QVQLVESGGGLVQAGGSLRLSCAASGRTFPAYTMGWYRQAPGKERELVAAINWSGGSTYYADSVKGRFTISRDNAKNTVYLQMNSLKPEDTAVYYCARTSHYYGFRSYGTLDYWGQGTQVTVSS | high polyreactivity
QVQLVESGGGLVQAGGSLRLSCAASGRTFPFYAMGWYRQAPGKERELVAAISISGGSTYYADSVKGRFTISRDNAKNTVYLLMNSLKPEDTAVYYCATDGLYLSWQYSWEELYYWGQGTQVTVSS | high polyreactivity
QVQLVESGGGLVQAGGSLRLSCAASGRTFPFYAMGWYRQAPGKERELVADITSSGGSTYYADSVKGRFTISRDNAKNTVYLQMNSLKPEDTAVYFCNSFRGAQGSDAYDWGQGTQVTVSS | low polyreactivity
QVQLVESGGGLVQAGGSLRLSCAASGRTFPGNAMGWYRQAPGKERELVAAISWSGTRTYYADSVKGRFTISRDNAKNTVYLQMNSLKPEDTAVYYCNRRYWSFFPYDYWGQGTQVTVSS | high polyreactivity
QVQLVESGGGLVQAGGSLRLSCAASGRTFPGNDMGWYRQAPGKERELVAAISSDDSTYYADSVKGRFTISRDNAKNTVYLQMNSLKPEDTAVYYCNAEYYEGYIGVPGSYWPYEYWGQGTQVTVSS | low polyreactivity
QVQLVESGGGLVQAGGSLRLSCAASGRTFPGYAMGWYRQAPGKERELVAAISWSGTSTYYADSVKGRFTISRDNAKNTVYLQMNSLKPEDTAVYYCNKVYTYSAPYYYWGQGTQVTVSS | high polyreactivity
QVQLVESGGGLVQAGGSLRLSCAASGRTFPGYAMGWYRQAPGKERELVATITGNGGSTYYADSVKGRFTISRDNAKNTVYLQMNSLKPDDTAVYYCAAGRRRPYVRAYSGTDYWGQGTQVTVSS | low polyreactivity
QVQLVESGGGLVQAGGSLRLSCAASGRTFPGYAMGWYRQAPGKEREVVAGISYRGGSTYYADSVKGRFTISRDNPKNTVYLQMNSLKPVDTAVYYCARDYSRHKGDYWGQGTQVTVSS | low polyreactivity
QVQLVESGGGLVQAGGSLRLSCAASGRTFPLNAMGWYRQAPGKERELVARISSNGGSTYYADSMKGRFTISRDNAKNTVYLQMNSLKPEDTAVYYCAARYYSRRGLYYWGQGTQVTVSS | high polyreactivity
QVQLVESGGGLVQAGGSLRLSCAASGRTFPPYAMGWYRQGPGKERELVASIRRGGSTHYADSVKRRFTISRDNAKNTVYLQMNSLQPEDTAVYYCAAYYGGWSTYGAGYGGFYYWGQGTQVTVSS | high polyreactivity
QVQLVESGGGLVQAGGSLRLSCAASGRTFPRNGMGWYRQAPGKERELVAAISWSGGRTYYADSVKGRFTISRDNAKNTVYLQMNSLKPEDTAVYYCNALYFRKGGYWGQGTQVTVSS | high polyreactivity
QVQLVESGGGLVQAGGSLRLSCAASGRTFPSNVMGWYRQAPGKEREFVAAITTRGGNTRYADSVKGRFTISRDNAKNTVYLQMNSLKPEDTAVFYCAAKVKPGYDYWGQGTQVTVSS | low polyreactivity
QVQLVESGGGLVQAGGSLRLSCAASGRTFPVYAMGWYRQAPGKEREFVAAISRRGGSTYYADSVKGRFTISRDNAKNTVYLQMNSLKPQDTAVYYCAKVYYLYGAQHNPGRYDYWGQGTQLTVSS | high polyreactivity
QVQLVESGGGLVQAGGSLRLSCAASGRTFPVYAMGWYRQAPGKERELVAAIRFSGGSTYYADSVKGRFTISRDNAKNTVYLQMNSLKPEDTAVYYCAADDWSWSTAWVPWYNYDYWGQGTQVTVSS | low polyreactivity
QVQLVESGGGLVQAGGSLRLSCAASGRTFPYNAMGWYRQAPGKERELVAAISGRGGSTYYADSVKGRFTISRDNAKNTVYLQMNSLKPEDTAVYYCAARLPWSYYRTQGYNYWGQGTQVTVSS | high polyreactivity
QVQLVESGGGLVQAGGSLRLSCAASGRTFPYNAMGWYRQAPGKERELVAAISSGGSTNYADSVKGRFTISRDNAKNTVYLQMNSLKPEDTAVYYCAVTGWPRYTWYSYGYWGQGTQVTVSS | low polyreactivity
